Measurements from publication PMC4609965 (2015).

Molecular target: alpha-synuclein (Homo sapiens, UniProt P37840)
Experiment: NMR PRE titration

B1: alpha-synuclein 125-140 (peptide)
chain: YEMPSEEGYQDYEPEA
- Kd: ~500 µM

B2: beta-synuclein 115-134 (peptide)
chain: EGESYEDPPQEEYQEYEPEA
- Kd: ~100 µM
